Laboratory results as given in paper PMC4499147.

Biological target: RNF168 (UniProt Q8IYW5)
Assay: anti-HA co-IP, FLAG blot
Details: reference: wild-type HA-LSD1

| binding against the reference (sites S137) | binding against the reference (sites S131) | Substance |
| --- | --- | --- |
| weaker | – | LSD1 (from UniProt O60341) S137A |
| – | weaker | LSD1 (from UniProt O60341) S131A |
